According to paper PMC13220886 (Science Advances, 2026):

B1: CHT1 (endocytosis-resistant CHT1-LV/AA, called WT CHT1) (Homo sapiens; L531A/S263A/V532A) (protein)
chain: MAFHVEGLIAIIVFYLLILLVGIWAAWRTKNSGSAEERSEAIIVGGRDIGLLVGGFTMTATWVGGGYINGTAEAVYVPGYGLAWAQAPIGYSLSLILGGLFFAKPMRSKGYVTMLDPFQQIYGKRMGGLLFIPALMGEMFWAAAIFSALGATISVIIDVDMHISVIISALIATLYTLVGGLYSVAYTDVVQLFCIFVGLWISVPFALSHPAVADIGFTAVHAKYQKPWLGTVDSSEVYSWLDSFLLLMLGGIPWQAYFQRVLASSSATYAQVLSFLAAFGCLVMAIPAILIGAIGASTDWNQTAYGLPDPKTTEEADMILPIVLQYLCPVYISFFGLGAVSAAVMSSADSSILSASSMFARNIYQLSFRQNASDKEIVWVMRITVFVFGASATAMALLTKTVYGLWYLSSDLVYIVIFPQLLCVLFVKGTNTYGAVAGYVSGLFLRITGGEPYLYLQPLIFYPGYYPDDNGIYNQKFPFKTLAMVTSFLTNICISYLAKYLFESGTLPPKLDVFDAVVARHSEENMDKTIAAKNENIKLDELALVKPRQSMTLSSTFTNKEAFLDVDSSPEGSGTEDNLQ
notes: full length; transient transfection, HeLa cells
B2: CHT1 (endocytosis-resistant CHT1-LV/AA, called WT CHT1) (Homo sapiens; L531A/V532A/W141F) (protein)
chain: MAFHVEGLIAIIVFYLLILLVGIWAAWRTKNSGSAEERSEAIIVGGRDIGLLVGGFTMTATWVGGGYINGTAEAVYVPGYGLAWAQAPIGYSLSLILGGLFFAKPMRSKGYVTMLDPFQQIYGKRMGGLLFIPALMGEMFFAAAIFSALGATISVIIDVDMHISVIISALIATLYTLVGGLYSVAYTDVVQLFCIFVGLWISVPFALSHPAVADIGFTAVHAKYQKPWLGTVDSSEVYSWLDSFLLLMLGGIPWQAYFQRVLSSSSATYAQVLSFLAAFGCLVMAIPAILIGAIGASTDWNQTAYGLPDPKTTEEADMILPIVLQYLCPVYISFFGLGAVSAAVMSSADSSILSASSMFARNIYQLSFRQNASDKEIVWVMRITVFVFGASATAMALLTKTVYGLWYLSSDLVYIVIFPQLLCVLFVKGTNTYGAVAGYVSGLFLRITGGEPYLYLQPLIFYPGYYPDDNGIYNQKFPFKTLAMVTSFLTNICISYLAKYLFESGTLPPKLDVFDAVVARHSEENMDKTIAAKNENIKLDELALVKPRQSMTLSSTFTNKEAFLDVDSSPEGSGTEDNLQ
notes: as for B1
B3: CHT1 (endocytosis-resistant CHT1-LV/AA, called WT CHT1) (Homo sapiens; L531A/V532A/Y91F) (protein)
chain: MAFHVEGLIAIIVFYLLILLVGIWAAWRTKNSGSAEERSEAIIVGGRDIGLLVGGFTMTATWVGGGYINGTAEAVYVPGYGLAWAQAPIGFSLSLILGGLFFAKPMRSKGYVTMLDPFQQIYGKRMGGLLFIPALMGEMFWAAAIFSALGATISVIIDVDMHISVIISALIATLYTLVGGLYSVAYTDVVQLFCIFVGLWISVPFALSHPAVADIGFTAVHAKYQKPWLGTVDSSEVYSWLDSFLLLMLGGIPWQAYFQRVLSSSSATYAQVLSFLAAFGCLVMAIPAILIGAIGASTDWNQTAYGLPDPKTTEEADMILPIVLQYLCPVYISFFGLGAVSAAVMSSADSSILSASSMFARNIYQLSFRQNASDKEIVWVMRITVFVFGASATAMALLTKTVYGLWYLSSDLVYIVIFPQLLCVLFVKGTNTYGAVAGYVSGLFLRITGGEPYLYLQPLIFYPGYYPDDNGIYNQKFPFKTLAMVTSFLTNICISYLAKYLFESGTLPPKLDVFDAVVARHSEENMDKTIAAKNENIKLDELALVKPRQSMTLSSTFTNKEAFLDVDSSPEGSGTEDNLQ
notes: as for B1
B4: CHT1 (endocytosis-resistant CHT1-LV/AA, called WT CHT1) (Homo sapiens; L531A/Q259A/V532A) (protein)
chain: MAFHVEGLIAIIVFYLLILLVGIWAAWRTKNSGSAEERSEAIIVGGRDIGLLVGGFTMTATWVGGGYINGTAEAVYVPGYGLAWAQAPIGYSLSLILGGLFFAKPMRSKGYVTMLDPFQQIYGKRMGGLLFIPALMGEMFWAAAIFSALGATISVIIDVDMHISVIISALIATLYTLVGGLYSVAYTDVVQLFCIFVGLWISVPFALSHPAVADIGFTAVHAKYQKPWLGTVDSSEVYSWLDSFLLLMLGGIPWQAYFARVLSSSSATYAQVLSFLAAFGCLVMAIPAILIGAIGASTDWNQTAYGLPDPKTTEEADMILPIVLQYLCPVYISFFGLGAVSAAVMSSADSSILSASSMFARNIYQLSFRQNASDKEIVWVMRITVFVFGASATAMALLTKTVYGLWYLSSDLVYIVIFPQLLCVLFVKGTNTYGAVAGYVSGLFLRITGGEPYLYLQPLIFYPGYYPDDNGIYNQKFPFKTLAMVTSFLTNICISYLAKYLFESGTLPPKLDVFDAVVARHSEENMDKTIAAKNENIKLDELALVKPRQSMTLSSTFTNKEAFLDVDSSPEGSGTEDNLQ
notes: as for B1
B5: CHT1 (endocytosis-resistant CHT1-LV/AA, called WT CHT1) (Homo sapiens; L531A/V532A) (protein)
chain: MAFHVEGLIAIIVFYLLILLVGIWAAWRTKNSGSAEERSEAIIVGGRDIGLLVGGFTMTATWVGGGYINGTAEAVYVPGYGLAWAQAPIGYSLSLILGGLFFAKPMRSKGYVTMLDPFQQIYGKRMGGLLFIPALMGEMFWAAAIFSALGATISVIIDVDMHISVIISALIATLYTLVGGLYSVAYTDVVQLFCIFVGLWISVPFALSHPAVADIGFTAVHAKYQKPWLGTVDSSEVYSWLDSFLLLMLGGIPWQAYFQRVLSSSSATYAQVLSFLAAFGCLVMAIPAILIGAIGASTDWNQTAYGLPDPKTTEEADMILPIVLQYLCPVYISFFGLGAVSAAVMSSADSSILSASSMFARNIYQLSFRQNASDKEIVWVMRITVFVFGASATAMALLTKTVYGLWYLSSDLVYIVIFPQLLCVLFVKGTNTYGAVAGYVSGLFLRITGGEPYLYLQPLIFYPGYYPDDNGIYNQKFPFKTLAMVTSFLTNICISYLAKYLFESGTLPPKLDVFDAVVARHSEENMDKTIAAKNENIKLDELALVKPRQSMTLSSTFTNKEAFLDVDSSPEGSGTEDNLQ
notes: as for B1
B6: CHT1 (endocytosis-resistant CHT1-LV/AA, called WT CHT1) (Homo sapiens; L531A/V532A/W62F) (protein)
chain: MAFHVEGLIAIIVFYLLILLVGIWAAWRTKNSGSAEERSEAIIVGGRDIGLLVGGFTMTATFVGGGYINGTAEAVYVPGYGLAWAQAPIGYSLSLILGGLFFAKPMRSKGYVTMLDPFQQIYGKRMGGLLFIPALMGEMFWAAAIFSALGATISVIIDVDMHISVIISALIATLYTLVGGLYSVAYTDVVQLFCIFVGLWISVPFALSHPAVADIGFTAVHAKYQKPWLGTVDSSEVYSWLDSFLLLMLGGIPWQAYFQRVLSSSSATYAQVLSFLAAFGCLVMAIPAILIGAIGASTDWNQTAYGLPDPKTTEEADMILPIVLQYLCPVYISFFGLGAVSAAVMSSADSSILSASSMFARNIYQLSFRQNASDKEIVWVMRITVFVFGASATAMALLTKTVYGLWYLSSDLVYIVIFPQLLCVLFVKGTNTYGAVAGYVSGLFLRITGGEPYLYLQPLIFYPGYYPDDNGIYNQKFPFKTLAMVTSFLTNICISYLAKYLFESGTLPPKLDVFDAVVARHSEENMDKTIAAKNENIKLDELALVKPRQSMTLSSTFTNKEAFLDVDSSPEGSGTEDNLQ
notes: as for B1
B7: CHT1 (endocytosis-resistant CHT1-LV/AA, called WT CHT1) (Homo sapiens; L531A/V532A/W406F) (protein)
chain: MAFHVEGLIAIIVFYLLILLVGIWAAWRTKNSGSAEERSEAIIVGGRDIGLLVGGFTMTATWVGGGYINGTAEAVYVPGYGLAWAQAPIGYSLSLILGGLFFAKPMRSKGYVTMLDPFQQIYGKRMGGLLFIPALMGEMFWAAAIFSALGATISVIIDVDMHISVIISALIATLYTLVGGLYSVAYTDVVQLFCIFVGLWISVPFALSHPAVADIGFTAVHAKYQKPWLGTVDSSEVYSWLDSFLLLMLGGIPWQAYFQRVLSSSSATYAQVLSFLAAFGCLVMAIPAILIGAIGASTDWNQTAYGLPDPKTTEEADMILPIVLQYLCPVYISFFGLGAVSAAVMSSADSSILSASSMFARNIYQLSFRQNASDKEIVWVMRITVFVFGASATAMALLTKTVYGLFYLSSDLVYIVIFPQLLCVLFVKGTNTYGAVAGYVSGLFLRITGGEPYLYLQPLIFYPGYYPDDNGIYNQKFPFKTLAMVTSFLTNICISYLAKYLFESGTLPPKLDVFDAVVARHSEENMDKTIAAKNENIKLDELALVKPRQSMTLSSTFTNKEAFLDVDSSPEGSGTEDNLQ
notes: as for B1

The molecules below were run against T1, sfCHT (Salimicrobium flavidum, UniProt A0A1N7IZC0) (assay: inhibition of [3H]-choline uptake into proteoliposomes). Details: 1 μM HC-3, 1 μM choline, 137 mM NaCl, pH 7.4, room temperature.
T1 construct: gene SAMN05421687_10333; full length, C-terminal 3C-His10 tag (cut by 3C for cryo-EM), E. coli BL21; monomer in DDM or E. coli polar lipid proteoliposomes; residues 22-69 and 81-543 built
T1 sequence (A0A1N7IZC0 entry or part of it): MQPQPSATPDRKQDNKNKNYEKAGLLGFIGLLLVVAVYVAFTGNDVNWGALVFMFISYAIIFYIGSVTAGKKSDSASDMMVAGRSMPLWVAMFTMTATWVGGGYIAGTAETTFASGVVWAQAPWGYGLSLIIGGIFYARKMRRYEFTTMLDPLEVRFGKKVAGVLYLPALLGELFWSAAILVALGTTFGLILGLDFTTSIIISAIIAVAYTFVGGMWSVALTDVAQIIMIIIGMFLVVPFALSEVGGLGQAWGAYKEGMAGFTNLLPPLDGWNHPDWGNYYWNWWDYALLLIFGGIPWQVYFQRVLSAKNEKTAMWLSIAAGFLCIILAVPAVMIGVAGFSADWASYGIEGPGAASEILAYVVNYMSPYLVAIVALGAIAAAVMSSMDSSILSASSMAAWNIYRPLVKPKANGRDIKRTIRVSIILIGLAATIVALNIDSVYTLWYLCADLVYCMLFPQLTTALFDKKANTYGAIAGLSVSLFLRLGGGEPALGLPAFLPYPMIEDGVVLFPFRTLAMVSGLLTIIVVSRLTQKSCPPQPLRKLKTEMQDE
Format: biochemical
With `C[N+]1(C)CCOC(O)(c2ccc(-c3ccc(C4(O)C[N+](C)(C)CCO4)cc3)cc2)C1` (stereo not drawn) [HC-3] the “uptake at 1 μM HC-3” value was “selectively suppressed Na^+-dependent uptake but had no effect in Na^+-free conditions”.

Each molecule was assayed on C[N+](C)(C)CCO (assay: [3H]-choline uptake, saturation kinetics in transfected HeLa cells). Details: pH 7.4, 137 mM NaCl, room temperature, 2 min, LV/AA background, labelled compound.
Format: cell-based, Homo sapiens
Description: [3H]-choline uptake, saturation kinetics in transfected HeLa cells on CHT1 (endocytosis-resistant CHT1-LV/AA, called WT CHT1)
B1 was tested, and the Km was 14.60 ± 2.03 µM and the Vmax was 0.000659 µmol/min/mg.
For B2, the Km was 270.81 ± 14.66 µM and the Vmax was 0.000588 µmol/min/mg.
With B3 the Km was 22.23 ± 1.91 µM and the Vmax was 0.000353 µmol/min/mg.
Work on B4 yielded a Km of 10.08 ± 1.50 µM and a Vmax of 0.000387 µmol/min/mg.
With B5 the Km was 12.17 ± 1.06 µM and the Vmax was 0.00118 µmol/min/mg.
B6 showed a Km of 401.72 ± 32.24 µM and a Vmax of 0.000627 µmol/min/mg.
Work on B7 yielded a Km of 357.60 ± 99.13 µM and a Vmax of 0.000543 µmol/min/mg.
